Target: human plasma-derived FIXa (Haematologic Technologies Inc) (human) (UniProt P00740)
Experiment: cell-based or functional assay

Sequence of human plasma-derived FIXa (Haematologic Technologies Inc) (human) (P00740 47-191, chain 1 of 2): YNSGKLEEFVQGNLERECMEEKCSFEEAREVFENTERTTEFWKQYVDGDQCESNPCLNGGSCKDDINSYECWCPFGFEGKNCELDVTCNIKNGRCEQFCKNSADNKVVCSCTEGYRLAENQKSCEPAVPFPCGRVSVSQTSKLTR
Sequence of human plasma-derived FIXa (Haematologic Technologies Inc) (human) (P00740 227-461, chain 2 of 2): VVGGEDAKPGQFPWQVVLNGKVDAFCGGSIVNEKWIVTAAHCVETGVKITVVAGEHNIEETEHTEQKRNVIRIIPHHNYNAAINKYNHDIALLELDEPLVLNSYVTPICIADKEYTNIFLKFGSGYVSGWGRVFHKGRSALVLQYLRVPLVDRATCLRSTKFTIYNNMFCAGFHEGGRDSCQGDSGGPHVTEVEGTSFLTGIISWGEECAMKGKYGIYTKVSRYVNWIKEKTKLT

Maximum stimulation (fold), at 15300 nM BiAb: 808 fold
Substance: ACE910 (bispecific antibody)

Reference: patent publication US20250011468A1
